US6660837B1, “Modified protein derived from protein kinase N” (Kirin Beer Kabushiki Kaisha, priority 1995, dated 2003)
Entries after “also recorded” stand apart in the source; their conditions may differ. One block for each substance: values may come before it.

Columns and labels:
wild type RhoA = biological target: T1, wild type RhoA (Homo sapiens, UniProt P61586); experiment: Yeast two-hybrid, N-terminal region of PKN with wild type RhoA; assay type: binding; conditions: yeast L40, histidine requirement
T1 construct: expressed in transfected cells; host or cells: yeast strain L40
Source text: (§1) According to a method described in A. B. Vojetk et al. Cell 74, 205-214 (1993), wild type H-Ras, wild type RhoA with C-terminal CAAX structure removed (S. Ando et al. Jikken Igaku 11, 1973-1980 (1993)), and variant RhoA^Val14cDNA fragment, were introduced into pBTM116 vector (A. B. Vojetk et al, ibid.) to construct vectors (designated as pBTM116-RasWT, pBTM116-RhoWT, and pBTM116-Rho^Val14), for expression thereof and LexA as fusion protein in yeast cells, which were then transformed into yeast (strain L40).
(§2) cDNA in N-terminal region (the amino acid sequence 7-155 in SEQ ID NO: 1) of PKN was introduced into BamHI site of pACT vector ([…] Library Kit, manufactured by Clontech Laboratories, Inc.) to construct a vector (designated as pACTIIHK-PKN-N) for expression thereof and GAL4 as fusion protein in yeast cells. The cDNA fragment, used here, corresponding to the N-terminal region of PKN was prepared as described in Example 4 (1).
(§3) Yeast transformed with pBTM116-RasWT, pBTM116-RhoWT, and pBTM116-Rho^Val14 was further transformed with pACTIIHK-PKN-N. Transformants were screened based on histidine requirement (A. B. Vojetk et al, Cell 74, 205-214 (1993).

variant RhoA^Val14 = biological target: T2, variant RhoA^Val14 (Homo sapiens, UniProt P61586, G14V); experiment: Yeast two-hybrid, N-terminal region of PKN with RhoA^Val14; assay type: binding; conditions: yeast L40, histidine requirement
T2 construct: expressed in transfected cells; host or cells: yeast strain L40
Source text: as §1, §2, §3

RhoA^Val14 CLVL^− = biological target: T3, RhoA^Val14 CLVL^− (Homo sapiens, UniProt P61586, G14V); experiment: Yeast two-hybrid, truncated PKN with RhoA^Val14CLVL^−; assay type: binding; conditions: yeast L40
T3 construct: expressed in transfected cells; host or cells: yeast strain L40
Source text: The cDNA fragments encoding various length of human PKN were inserted into the vector pBTM116 (Example 7) in frame with the upstream LexA DNA-binding domain sequences or the vector pVP16 (Example 7) in frame with the upstream VP16 transcription activation domain sequences. The cDNA fragments encoding human RhoA, RhoA^Val14, and RhoA^Ala37 were obtained by digesting pGEX-RhoA, pGEX-RhoA^Val14, and pGEX-RhoA^Ala37 (Example 1) with restriction enzymes, respectively, then cloned into pBTM116 and pVP16.
The expression plasmids were transfected into yeast L40 cells and plated on semi-solid media lacking tryptophan and leucine. Interaction was examined using a filter lift assay for the β-galactosidase activity in the same manner as in Example 6. […]

α-actinin (HuActSkl) = experiment: Yeast two-hybrid, regions of PKN with HuActSkl; assay type: binding, human
Procedure: Schemes of the fusion constructs for human PKN, human skeletal muscle type α-actinin (HuActSkl , designated in (Beggs, A., et al., J. Biol. Chem. 267, 9281-9288 (1992)) and non-skeletal muscle type α-actinin (HuActNm, designated in (Beggs, A., et al., J. Biol. Chem. 267, 9281-9288 (1992)) used in this study are shown in FIGS. 41 and 42. Screening of proteins, which bind to the N-terminal region of human PKN (the amino acid sequence 1-540, this region being designated as “PKNNl”), was performed as described in Example 6. Primary positive clones were recovered and retransfected into the original yeast host strain YGH1 (a, ura3-52, his3-200, ade2-101, lys2-801, trpl-901, leu2-3, Can^r, gal4-542, gal80-538, LYS2::gal1uas-gal1tala-HIS3, URA3::gall-lacZ) in combination with the Gal4bd-PKN or the Gal4bd-p53 tumor suppresser. Plasmids that activated marker expression only in the presence of PKN were analyzed further.
The two-hybrid methods was employed to identify the region of PKN that interacted with HuActSkl , and this region was compared with the binding site for RhoA, which binds to PKN, in vitro and in vivo. […] This region corresponds to the second leucine zipperlike sequence and the N-terminal region adjacent thereto, which is conserved through evolution in vertebrates (Mukai, H., et al., Biochim. Biophys. Acta 1261, 296-300 (1995)). […]

[1] = biological target: T4, binding of PKN to GTPγS.GST-RhoA (Homo sapiens, UniProt P61586); experiment: Inhibition of binding between in vitro translated PKN and GTPγS.GST-RhoA by synthetic peptides; conditions: concentration-dependent
T4 construct: made in house; PKN 1-474: in vitro translation
Procedure: A protein corresponding to the amino acid sequence 1-474 in SEQ ID NO: 1) was prepared by in vitro translation. GTPγS or GDP.GST-RhoA (15 nM) was incubated with PKN (1.5 μl) prepared by in vitro translation in a total volume of 200 μl of binding buffer (20 mM Tris/HCl at pH 7.5, 1 mM EDTA, 0.5 mM DTT, 5 mM MgCl2 and 1 μg/ml leupeptin) for 60 min at 4° C. Then 40 μl of glutathione-Sepharose 4B (Pharmacia Biotech) preincubated in binding buffer containing 10 mg/ml E. coli extracts to block non-specific binding was added, and the mixture was rotated for 30 min at 4° C. Unbound proteins were removed by four washes with binding buffer containing 0.2% Nonidet P-40 and 50 mM NaCl, and by two washes with binding buffer. Specifically bound proteins were eluted with binding buffer containing 10 mM reduced glutathione and subjected to SDS-PAGE, and the gel was subjected to autoradiography.
Synthetic peptide fragments for potential RhoA binding region of PKN were synthesized with an automated peptide synthesizer (Applied Biosystems, model 431). An experiment using synthetic peptides wes carried out using the peptides in various concentrations in 200 μl of binding buffer.

PKN in Swiss 3T3 cells = assay type: cell-based; conditions: 200 ng/ml for 10 min
[2] = biological target: T5, binding of full-length α-actinin (HuActSkl) to GST-PKNN1 (Homo sapiens, UniProt P35609); experiment: Effect of PI4,5P2 on in vitro binding between α-actinin and PKN
T5 construct: 2 μl of in vitro translated full-length HuActSkl was mixed with 5 μg of GST-PKNN1 fusion protein; made in house; host or cells: HuActSkl: rabbit reticulocyte lysate; GST-PKNN1: E. coli
Procedure: For analysis of the effect of phosphatidylinositol 4,5 bisphosphate (PI4, 5P2) (Boehringer Mannheim) on the binding between α-actinin and PKN, 2 μl of in vitro translated full-length HuActSkl was mixed with 5 μg of GST-PKNN1 fusion protein or with 25 μg of GST alone in 400 μl of buffer P (20 mM Tris/HCl at pH 7.5, 0.5 mM DTT, 120 mM NaCl, 1 mM EDTA) and incubated for 1 hr at room temperature with or without PI4, 5P2. After addition of 25 μl of glutathione-Sepharose 4B pretreated with E. coli extract, the binding reaction was continued for additional 30 min at 4° C. The glutathione-Sepharose 4B was then washed four times in buffer P containing 0.01% Triton X-100. Bound proteins were eluted with GST elution buffer and were subjected to SDS-PAGE. The binding was visualized and quantitated by an imaging analyzer (FUJI BAS1000).

interaction with RhoA^Val14 CLVL^− (β-galactosidase filter assay) (RhoA^Val14 CLVL^−): interacted
Substance: amino acid sequence 1-538: truncated human PKN, amino acid sequence 1-538 in SEQ ID NO: 1, two-hybrid fusion

interaction with RhoA^Val14 CLVL^− (β-galactosidase filter assay) (RhoA^Val14 CLVL^−): interacted
Substance: amino acid sequence 33-111: truncated human PKN, amino acid sequence 33-111 in SEQ ID NO: 1, Rho protein-binding region
interaction with α-actinin in two-hybrid system (α-actinin (HuActSkl)): hardly interacted

inhibition of binding of PKN to GTPγS.GST-RhoA [1]: inhibited the binding
Substance: amino acid sequence 74-93: synthetic peptide fragment corresponding to the amino acid sequence 74-93 in SEQ ID NO: 1 (ELLLRGSSRRLDLLHQQLQE; UniProt Q16512 74-93, looked up, fragment)

inhibition of binding of PKN to GTPγS.GST-RhoA [1]: inhibited the binding
Substance: amino acid sequence 94-113: synthetic peptide fragment corresponding to the amino acid sequence 94-113 in SEQ ID NO: 1 (LHAHVVLPDPAATHDGPQSP; UniProt Q16512 94-113, looked up, fragment)

effect on binding of full-length α-actinin to PKN ([2]; 10 μM): stimulated the binding
concentration up to which binding activity was elevated ([2]; decreased at higher concentrations up to 100 μM): 2.5 to 10 µM
Substance: phosphatidylinositol 4,5 bisphosphate [PI4, 5P2]

Second part, the substance before the results:

Substance: N-terminal region (amino acids 7-155) of PKN: amino acid sequence 7-155 in SEQ ID NO: 1 expressed as GAL4 fusion protein in yeast
binding to wild type RhoA (wild type RhoA): binds
binding to variant RhoA^Val14 (variant RhoA^Val14): binds

Substance: amino acid sequence 82-103: synthetic peptide fragment corresponding to the amino acid sequence 82-103 in SEQ ID NO: 1 (RRLDLLHQQLQELHAHVVLPDP; UniProt Q16512 82-103, looked up, fragment)
inhibition of binding of PKN to GTPγS.GST-RhoA [1]: excellent inhibitory activity; also recorded: inhibited the binding

Substance: lysophosphatidic acid [LAP]
stimulation of autophosphorylation of PKN (PKN in Swiss 3T3 cells): twice
